{
  "source": "patent US10500249B2",
  "about": "“Compositions and methods for preventing or treating diseases, conditions, or processes characterized by aberrant fibroblast proliferation and extracellular matrix deposition” (MOERAE MATRIX, INC., priority 2014, dated 2019)",
  "assay_in_all_cases": "Kinase Profiling Assay",
  "type_in_all_cases": "biochemical",
  "conditions_in_all_cases": "100 μM",
  "key": {"ALK4 (h)": {"biological_target": "T1, ALK4 (h) (Homo sapiens, UniProt P36896)", "T1 sequence (P36896 24-505)": "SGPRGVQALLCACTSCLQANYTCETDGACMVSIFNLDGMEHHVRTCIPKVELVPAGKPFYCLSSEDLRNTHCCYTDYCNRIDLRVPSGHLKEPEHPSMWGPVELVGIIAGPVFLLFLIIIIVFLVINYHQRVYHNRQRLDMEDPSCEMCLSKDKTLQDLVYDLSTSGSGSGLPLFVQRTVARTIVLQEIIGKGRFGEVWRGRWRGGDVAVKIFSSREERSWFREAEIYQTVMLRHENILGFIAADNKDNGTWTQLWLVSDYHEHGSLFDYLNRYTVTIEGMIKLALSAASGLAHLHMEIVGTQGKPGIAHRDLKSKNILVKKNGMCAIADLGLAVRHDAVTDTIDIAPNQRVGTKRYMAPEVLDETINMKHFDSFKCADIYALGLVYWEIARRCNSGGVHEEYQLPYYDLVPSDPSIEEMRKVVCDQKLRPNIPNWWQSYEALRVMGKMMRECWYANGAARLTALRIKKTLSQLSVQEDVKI", "summary_of_the_method": "(§1)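 Duplicate wells; [radiolabeled] ATP phosphate onto cationic substrate; filter capture (negatively charged membrane); scintillation count; % of 100% activity control. Selectivity screen of MK2 peptide inhibitors, 266 human kinases.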"}, "KDR (h)": {"biological_target": "KDR (h) (Homo sapiens, UniProt P35968)", "sequence (P35968 20-1356)": "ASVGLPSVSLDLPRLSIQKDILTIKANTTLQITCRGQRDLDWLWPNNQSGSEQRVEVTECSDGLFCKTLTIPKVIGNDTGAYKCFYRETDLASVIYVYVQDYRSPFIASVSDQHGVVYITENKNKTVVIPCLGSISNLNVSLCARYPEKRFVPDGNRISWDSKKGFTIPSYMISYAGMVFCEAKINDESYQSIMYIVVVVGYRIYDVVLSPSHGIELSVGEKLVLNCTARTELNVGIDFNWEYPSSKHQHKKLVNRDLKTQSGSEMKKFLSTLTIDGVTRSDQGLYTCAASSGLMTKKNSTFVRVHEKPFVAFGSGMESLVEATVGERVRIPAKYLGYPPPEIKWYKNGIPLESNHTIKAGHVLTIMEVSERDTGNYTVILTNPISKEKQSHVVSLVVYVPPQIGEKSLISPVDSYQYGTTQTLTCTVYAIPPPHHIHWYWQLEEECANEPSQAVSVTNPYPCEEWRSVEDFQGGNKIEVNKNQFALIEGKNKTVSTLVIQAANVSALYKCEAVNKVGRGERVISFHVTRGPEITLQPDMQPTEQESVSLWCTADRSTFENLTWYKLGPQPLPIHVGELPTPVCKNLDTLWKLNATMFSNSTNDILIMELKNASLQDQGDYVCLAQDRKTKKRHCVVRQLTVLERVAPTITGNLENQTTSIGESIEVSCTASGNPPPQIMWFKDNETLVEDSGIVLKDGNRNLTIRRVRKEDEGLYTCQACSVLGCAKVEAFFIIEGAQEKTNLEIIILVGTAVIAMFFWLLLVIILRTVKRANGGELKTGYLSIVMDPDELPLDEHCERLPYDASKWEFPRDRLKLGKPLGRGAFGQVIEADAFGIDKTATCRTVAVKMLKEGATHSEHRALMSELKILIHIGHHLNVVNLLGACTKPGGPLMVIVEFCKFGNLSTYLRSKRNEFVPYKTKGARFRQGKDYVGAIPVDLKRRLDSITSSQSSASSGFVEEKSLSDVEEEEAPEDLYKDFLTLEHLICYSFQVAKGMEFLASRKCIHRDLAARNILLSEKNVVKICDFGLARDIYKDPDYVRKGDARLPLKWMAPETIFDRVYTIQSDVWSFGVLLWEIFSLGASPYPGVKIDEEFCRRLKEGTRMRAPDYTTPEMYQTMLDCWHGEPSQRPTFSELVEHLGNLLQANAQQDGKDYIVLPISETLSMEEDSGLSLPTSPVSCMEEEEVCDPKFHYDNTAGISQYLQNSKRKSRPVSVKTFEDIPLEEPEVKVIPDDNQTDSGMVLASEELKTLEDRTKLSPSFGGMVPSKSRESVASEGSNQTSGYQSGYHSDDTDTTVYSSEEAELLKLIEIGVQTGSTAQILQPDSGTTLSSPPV", "summary_of_the_method": "as §1"}, "PKBγ (h)": {"biological_target": "T2, PKBγ (h) (Homo sapiens, UniProt Q9Y243)", "T2 construct": "purchased Millipore", "T2 sequence (Q9Y243 whole entry)": "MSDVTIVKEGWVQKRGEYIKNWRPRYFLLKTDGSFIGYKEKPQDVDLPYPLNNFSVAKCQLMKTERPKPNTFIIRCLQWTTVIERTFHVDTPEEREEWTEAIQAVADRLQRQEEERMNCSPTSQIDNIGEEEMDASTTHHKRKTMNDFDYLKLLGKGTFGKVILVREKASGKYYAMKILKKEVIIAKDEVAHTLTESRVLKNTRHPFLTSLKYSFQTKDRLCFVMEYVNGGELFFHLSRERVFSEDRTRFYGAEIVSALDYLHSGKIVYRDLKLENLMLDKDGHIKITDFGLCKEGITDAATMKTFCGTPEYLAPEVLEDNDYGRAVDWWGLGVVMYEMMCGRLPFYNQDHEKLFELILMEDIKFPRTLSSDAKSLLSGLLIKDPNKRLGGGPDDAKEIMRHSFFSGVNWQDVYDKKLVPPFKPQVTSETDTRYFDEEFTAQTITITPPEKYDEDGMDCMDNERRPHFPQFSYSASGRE", "summary_of_the_method": "as §1"}, "AMPKα1 (h)": {"biological_target": "AMPKα1 (h) (Homo sapiens, UniProt Q13131)", "sequence (Q13131 whole entry)": "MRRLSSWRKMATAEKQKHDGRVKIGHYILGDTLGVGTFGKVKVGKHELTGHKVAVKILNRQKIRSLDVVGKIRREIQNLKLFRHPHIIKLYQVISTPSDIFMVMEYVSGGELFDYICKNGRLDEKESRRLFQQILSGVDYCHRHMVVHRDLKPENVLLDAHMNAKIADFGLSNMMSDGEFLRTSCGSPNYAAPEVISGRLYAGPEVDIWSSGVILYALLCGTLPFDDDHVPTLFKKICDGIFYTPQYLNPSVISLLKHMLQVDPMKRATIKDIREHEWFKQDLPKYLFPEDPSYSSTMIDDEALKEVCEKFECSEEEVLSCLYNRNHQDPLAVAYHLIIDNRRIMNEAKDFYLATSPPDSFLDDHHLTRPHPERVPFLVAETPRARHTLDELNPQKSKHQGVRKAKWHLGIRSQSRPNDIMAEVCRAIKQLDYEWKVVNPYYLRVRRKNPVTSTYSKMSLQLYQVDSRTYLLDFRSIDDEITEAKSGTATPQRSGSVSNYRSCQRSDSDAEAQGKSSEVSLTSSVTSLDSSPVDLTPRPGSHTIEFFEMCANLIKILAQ", "sequence (Q9Y478 whole entry partner)": "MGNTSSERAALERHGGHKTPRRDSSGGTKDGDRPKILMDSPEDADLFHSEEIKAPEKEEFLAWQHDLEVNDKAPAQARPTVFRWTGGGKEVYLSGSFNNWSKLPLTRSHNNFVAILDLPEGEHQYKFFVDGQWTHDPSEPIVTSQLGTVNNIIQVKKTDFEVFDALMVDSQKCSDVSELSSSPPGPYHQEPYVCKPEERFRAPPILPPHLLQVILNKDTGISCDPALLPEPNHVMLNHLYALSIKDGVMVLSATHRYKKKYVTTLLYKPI", "sequence (P54619 whole entry partner)": "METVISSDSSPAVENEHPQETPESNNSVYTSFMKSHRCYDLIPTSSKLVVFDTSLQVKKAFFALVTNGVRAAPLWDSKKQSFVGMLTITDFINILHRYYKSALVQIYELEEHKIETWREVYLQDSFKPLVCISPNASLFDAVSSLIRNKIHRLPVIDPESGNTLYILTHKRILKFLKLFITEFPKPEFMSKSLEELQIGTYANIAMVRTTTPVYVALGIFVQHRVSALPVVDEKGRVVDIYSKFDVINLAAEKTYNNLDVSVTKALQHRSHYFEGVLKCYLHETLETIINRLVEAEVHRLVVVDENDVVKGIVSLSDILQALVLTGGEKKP", "summary_of_the_method": "as §1"}, "Mer (h)": {"biological_target": "T3, Mer (h) (Homo sapiens, UniProt Q12866)", "T3 sequence (Q12866 21-999)": "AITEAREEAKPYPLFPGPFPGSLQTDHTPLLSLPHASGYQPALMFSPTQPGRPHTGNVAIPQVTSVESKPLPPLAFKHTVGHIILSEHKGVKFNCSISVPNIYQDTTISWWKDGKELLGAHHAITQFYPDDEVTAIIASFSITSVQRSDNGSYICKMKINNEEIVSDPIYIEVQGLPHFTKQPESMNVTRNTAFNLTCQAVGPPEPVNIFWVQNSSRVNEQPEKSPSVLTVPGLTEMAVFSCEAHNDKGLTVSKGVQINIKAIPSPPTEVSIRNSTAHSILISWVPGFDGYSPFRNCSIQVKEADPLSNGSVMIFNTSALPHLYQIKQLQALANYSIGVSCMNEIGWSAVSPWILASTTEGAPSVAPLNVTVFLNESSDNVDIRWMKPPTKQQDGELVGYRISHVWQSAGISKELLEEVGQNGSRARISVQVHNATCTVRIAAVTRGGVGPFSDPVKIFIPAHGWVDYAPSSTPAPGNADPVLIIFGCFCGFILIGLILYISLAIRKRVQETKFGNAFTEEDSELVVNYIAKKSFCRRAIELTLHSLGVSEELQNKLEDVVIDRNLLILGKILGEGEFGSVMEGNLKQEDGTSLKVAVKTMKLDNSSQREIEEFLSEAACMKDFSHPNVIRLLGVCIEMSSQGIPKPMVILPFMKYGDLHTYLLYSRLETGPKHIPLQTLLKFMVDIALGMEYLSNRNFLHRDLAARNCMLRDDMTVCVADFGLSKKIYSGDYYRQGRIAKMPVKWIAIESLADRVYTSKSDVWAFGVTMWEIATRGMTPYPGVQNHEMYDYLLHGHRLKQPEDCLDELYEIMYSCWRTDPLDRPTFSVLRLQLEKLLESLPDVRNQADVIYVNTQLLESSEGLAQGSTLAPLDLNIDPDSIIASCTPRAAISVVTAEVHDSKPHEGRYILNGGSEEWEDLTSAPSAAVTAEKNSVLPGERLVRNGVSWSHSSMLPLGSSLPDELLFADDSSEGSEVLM", "summary_of_the_method": "as §1"}, "Rse (h)": {"biological_target": "T4, Rse (h) (Homo sapiens, UniProt Q06418)", "T4 sequence (Q06418 41-890)": "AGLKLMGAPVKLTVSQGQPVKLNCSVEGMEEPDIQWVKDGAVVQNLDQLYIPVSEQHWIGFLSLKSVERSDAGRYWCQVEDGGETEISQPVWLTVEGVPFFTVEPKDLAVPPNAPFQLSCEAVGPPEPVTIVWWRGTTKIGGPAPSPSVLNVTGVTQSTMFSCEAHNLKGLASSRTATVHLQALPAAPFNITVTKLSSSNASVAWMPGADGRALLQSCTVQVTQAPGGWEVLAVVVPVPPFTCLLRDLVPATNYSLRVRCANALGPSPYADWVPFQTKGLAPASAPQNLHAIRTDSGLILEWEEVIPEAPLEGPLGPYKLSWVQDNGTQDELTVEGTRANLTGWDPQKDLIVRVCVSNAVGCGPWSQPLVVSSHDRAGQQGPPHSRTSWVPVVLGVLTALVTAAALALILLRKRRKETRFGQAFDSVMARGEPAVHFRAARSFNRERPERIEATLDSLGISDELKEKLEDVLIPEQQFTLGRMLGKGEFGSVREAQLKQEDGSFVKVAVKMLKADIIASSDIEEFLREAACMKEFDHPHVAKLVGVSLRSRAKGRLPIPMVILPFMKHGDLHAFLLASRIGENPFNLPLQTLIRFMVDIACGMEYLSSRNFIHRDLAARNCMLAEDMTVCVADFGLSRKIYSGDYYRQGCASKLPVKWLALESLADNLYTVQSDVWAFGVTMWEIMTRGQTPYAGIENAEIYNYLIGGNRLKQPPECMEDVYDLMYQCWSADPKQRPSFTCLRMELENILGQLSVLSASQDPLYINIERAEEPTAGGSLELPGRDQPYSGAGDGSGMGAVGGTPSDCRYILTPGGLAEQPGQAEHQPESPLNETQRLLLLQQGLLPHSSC", "summary_of_the_method": "as §1"}},
  "data": [
    {"sequence": "FAKLAARLYRKALARQLGVAA [MMI-0300]", "values": [
      {"measurement": "% activity", "setting": "ALK4 (h)", "result": 140, "unit": "%"},
      {"measurement": "% activity", "setting": "KDR (h)", "result": 101, "unit": "%"},
      {"measurement": "% activity", "setting": "PKBγ (h)", "result": 20, "unit": "%"},
      {"measurement": "% activity", "setting": "AMPKα1 (h)", "result": 71, "unit": "%"},
      {"measurement": "% activity", "setting": "Mer (h)", "result": 52, "unit": "%"},
      {"measurement": "% activity", "setting": "Rse (h)", "result": 88, "unit": "%"}
    ]},
    {"sequence": "KAFAKLAARLYRKALARQLGVAA [MMI-0400]", "values": [
      {"measurement": "% activity", "setting": "ALK4 (h)", "result": 130, "unit": "%"},
      {"measurement": "% activity", "setting": "KDR (h)", "result": 94, "unit": "%"},
      {"measurement": "% activity", "setting": "PKBγ (h)", "result": 41, "unit": "%"},
      {"measurement": "% activity", "setting": "AMPKα1 (h)", "result": 87, "unit": "%"},
      {"measurement": "% activity", "setting": "Mer (h)", "result": 50, "unit": "%"},
      {"measurement": "% activity", "setting": "Rse (h)", "result": 89, "unit": "%"}
    ]},
    {"sequence": "YARAAARQARAKALNRQLGVA (Mammalian) [MMI-0200]", "values": [
      {"measurement": "% activity", "setting": "ALK4 (h)", "result": 152, "unit": "%"},
      {"measurement": "% activity", "setting": "KDR (h)", "result": 110, "unit": "%"},
      {"measurement": "% activity", "setting": "AMPKα1 (h)", "result": 108, "unit": "%"},
      {"measurement": "% activity", "setting": "Mer (h)", "result": 90, "unit": "%"},
      {"measurement": "% activity", "setting": "Rse (h)", "result": 88, "unit": "%"}
    ]},
    {"sequence": "HRRIKAWLKKIKALARQLGVAA (Mammalian) [MMI-0500]", "values": [
      {"measurement": "% activity", "setting": "ALK4 (h)", "result": 81, "unit": "%"},
      {"measurement": "% activity", "setting": "KDR (h)", "result": 15, "unit": "%"},
      {"measurement": "% activity", "setting": "PKBγ (h)", "result": 20, "unit": "%"},
      {"measurement": "% activity", "setting": "AMPKα1 (h)", "result": 35, "unit": "%"},
      {"measurement": "% activity", "setting": "Mer (h)", "result": 17, "unit": "%"},
      {"measurement": "% activity", "setting": "Rse (h)", "result": 63, "unit": "%"}
    ]}
  ]
}
